± gives the uncertainty stated by the source.
Experiment: protein stability index of a GFP-peptide fusion (yeast GPS) (PSI 1-4); higher = more stable; sorted into four equal gates, so the index is relative within each strain
How it was run: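 Plasmids isolated from each sorting gate were PCR-amplified and Illumina-sequenced, and barcodes assigned the reads to strains. The gates, four of equal size, were set by GFP/Cherry fluorescence ratio on mid-log cultures in leucine-free medium. These cultures were yeast carrying a pooled library of tiled 17-residue yeast protein peptides fused downstream of GFP on a plasmid that also expresses Cherry. The protein stability index is the sum of every gate's read frequency times its gate number.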

Sequence | protein stability index (doa10∆) | protein stability index (pdr5∆) | protein stability index (san1∆) | protein stability index (ubr1∆)
KWAGIKTRKFVFNPPKP [CYT1] | 3.04 ± 0.16 | 2.98 ± 0.24 | 3.05 ± 0.17 | 2.95 ± 0.15
TQQAVNLEKNYLAKLSK [IRR1] | 3.06 ± 0.27 | 3.34 ± 0.23 |  | 2.91 ± 0.14
AKTLIPSLNNKISDDEL [RPB4] | 2.98 ± 0.069 | 3.1 ± 0.069 | 3.06 ± 0.06 | 3.19 ± 0.061
WRKDAQGNYPTTSYIKE [DPB4] | 2.94 ± 0.092 | 2.88 ± 0.069 | 2.92 ± 0.069 | 2.56 ± 0.064
ADEDDEDAKYVINLKQI [RPT1] | 1.99 ± 0.13 | 2.66 ± 0.16 | 1.8 ± 0.2 | 2.61 ± 0.085
NSTLKKVESQETLNDTI [YCS4] | 2.12 ± 0.1 | 2.43 ± 0.092 | 2.37 ± 0.13 | 2.1 ± 0.11
QQNIKFRRDFLLREYDI [YJL039C/NUP192] | 2.5 ± 0.058 | 2.57 ± 0.055 | 2.9 ± 0.045 | 2.63 ± 0.037
PEWMILTCLPVPPPPVR [RPO21] |  | 3.52 ± 0.17 |  | 
WNKRDFMAFINACAKYG [ISW2] | 1.21 ± 0.087 | 1.24 ± 0.092 | 1.34 ± 0.26 | 1.15 ± 0.063
NKQIEILTDLVNYRHFK [ITC1] | 2.93 ± 0.042 | 2.99 ± 0.036 | 3.03 ± 0.043 | 2.75 ± 0.036
RAIDSLIQKGYLQRGDD [CDC53] | 1.68 ± 0.066 | 1.94 ± 0.069 | 2.17 ± 0.12 | 2.06 ± 0.077
NYQYKIQELRKLLKSLL [MED7] | 1.43 ± 0.07 | 1.88 ± 0.095 | 2.28 ± 0.22 | 1.81 ± 0.072
ANVDQISFLEPINLKFL [YMR129W/POM152] | 2.75 ± 0.057 | 2.89 ± 0.077 | 2.92 ± 0.054 | 2.91 ± 0.048
REDEFGSIPSLTTQFVT [YDL088C/ASM4] | 3 ± 0.066 | 2.92 ± 0.058 | 3.06 ± 0.053 | 3.2 ± 0.067
ANEEPNTENVESVPTPA [ITC1] | 2.87 ± 0.14 | 2.91 ± 0.11 | 2.98 ± 0.26 | 3.18 ± 0.15
AFTCFCIKKIMENNEPA [SRB8] | 2.21 ± 0.062 | 2.64 ± 0.077 | 2.38 ± 0.09 | 2.15 ± 0.079
DERSQGEKNFTSAHLKL [SMC4] | 3.17 ± 0.16 | 3.4 ± 0.13 | 3.14 ± 0.076 | 3.36 ± 0.11
QLESIYFRILLPYERHM [SWI1] | 1.88 ± 0.055 | 1.83 ± 0.046 | 1.68 ± 0.067 | 1.9 ± 0.053
SGDSGVYTLACRSCPYE [RPC11] | 1.28 ± 0.13 | 2.01 ± 0.18 |  | 1.26 ± 0.15
NNSSSGMNNASAGLFGS [YGL172W/NUP49] | 3.18 ± 0.084 | 3.08 ± 0.051 | 3.29 ± 0.036 | 3.35 ± 0.068
KTKILEVAIRDVNLDVR [IRR1] | 2.58 ± 0.055 | 2.12 ± 0.065 | 2.38 ± 0.057 | 2.48 ± 0.052
VGLSQPDAKIQVRRDIP [YMR129W/POM152] | 2.98 ± 0.082 | 2.76 ± 0.14 | 2.51 ± 0.059 | 2.97 ± 0.066
HLVMRAISLGLLKGSID [RPN9] | 2.04 ± 0.095 | 2.55 ± 0.14 | 1.58 ± 0.18 | 1.79 ± 0.16
YKPLIEERMGQIENLNE [SMC4] | 3.2 ± 0.23 | 3.34 ± 0.098 | 3.46 ± 0.071 | 3.28 ± 0.068
FLELTRRADVKTATVKI [RPL38] | 1.67 ± 0.05 | 1.77 ± 0.041 | 2.02 ± 0.077 | 1.2 ± 0.042
TLLESNLCKIIEPFECV [RPN6] | 2.26 ± 0.085 | 2.81 ± 0.12 | 2.28 ± 0.12 | 2.88 ± 0.16

Sequence | protein stability index (doa10∆) | protein stability index (pdr5∆) | protein stability index (san1∆) | protein stability index (ubr1∆)
TANTGTIGKRRTTTNTT [TAF14] | 3.18 ± 0.06 | 3.29 ± 0.046 | 3.21 ± 0.045 | 3.19 ± 0.062
STCIVSLIRNNLHAEGW [ECM29] | 1.21 ± 0.052 | 1.47 ± 0.068 | 2 ± 0.077 | 1.64 ± 0.067
AGQLALDLANSGDESNV [YDL116W/NUP84] | 2.93 ± 0.29 |  | 2.71 ± 0.26 | 3 ± 0.12
QEHTIFTQLKKNIPKTR [SNU114] | 1.8 ± 0.045 | 2.16 ± 0.05 | 2.64 ± 0.049 | 1.62 ± 0.037
ILSLEQSSRVVSLSQLL [YCS4] | 1.84 ± 0.072 | 1.5 ± 0.05 | 2.12 ± 0.098 | 1.85 ± 0.063
LSSIAERVRNFAVIYLC [DIB1] | 1.51 ± 0.083 | 2.04 ± 0.11 | 1.71 ± 0.11 | 1.88 ± 0.12
GLLSQAIGCIERSDLLP [YJR042W/NUP85] | 2.37 ± 0.07 | 2.37 ± 0.064 | 2.43 ± 0.09 | 2.51 ± 0.069
LFRIFSMSEEFKYVSVR [BRR2] | 2.39 ± 0.14 | 3.18 ± 0.15 | 2.99 ± 0.18 | 3.29 ± 0.12
RAGIIIAKLSVIPIRRG [RPS2] | 2.21 ± 0.077 | 2.13 ± 0.047 | 1.31 ± 0.13 | 2.25 ± 0.072
STRASTVPNLPTTMVTN [ISW2] | 1.92 ± 0.055 | 2.38 ± 0.056 | 2.35 ± 0.058 | 2.38 ± 0.047
GFNMKKITTSTEDQKVT [SRP68] | 2.84 ± 0.065 | 2.67 ± 0.051 | 2.83 ± 0.074 | 2.42 ± 0.04
IKPKPLWSGKQILSVAI [RPO21] | 1.62 ± 0.056 | 1.53 ± 0.047 | 1.4 ± 0.073 | 1.62 ± 0.064
MSESSDISAMQPVNPKP [SMX3] | 3.42 ± 0.15 | 3.51 ± 0.16 | 3.4 ± 0.12 | 3.17 ± 0.14
EGIEIYDRKKLPRKEVD [RPC11] | 3.14 ± 0.14 | 2.98 ± 0.097 | 1.91 ± 0.14 | 3.3 ± 0.17
ELHKKLVEAAKLLKIPK [YDL116W/NUP84] | 2.57 ± 0.13 | 2.24 ± 0.15 | 2.33 ± 0.22 | 2.49 ± 0.1
QKYTKEMIDSHIKEASE [SNF2] | 2.93 ± 0.06 | 2.88 ± 0.054 | 2.94 ± 0.051 | 3.02 ± 0.037
DENPDLLGYTGIPTDKG [PRE8] | 1.99 ± 0.05 | 2.48 ± 0.063 | 2.71 ± 0.05 | 2.28 ± 0.044
LDPLTKDPVDFVRQAAM [RPN2] | 3.39 ± 0.12 | 3.53 ± 0.14 | 3.17 ± 0.2 | 2.85 ± 0.25
ETVFNYRLMIKRLNFSF [GRR1] | 1.84 ± 0.099 | 1.3 ± 0.068 | 1.27 ± 0.12 | 1.31 ± 0.074
TPDDDEIDVENHDRINI [RPN8] | 3.37 ± 0.26 | 3.5 ± 0.25 | 2.75 ± 0.17 | 2.68 ± 0.16
YLIVAGVDPTGSHLFSI [PUP1] | 1.84 ± 0.081 | 2.24 ± 0.085 | 1.94 ± 0.14 | 2.09 ± 0.068
QDRLSDLIHKSEAFPSL [SMC4] | 3.31 ± 0.15 | 2.7 ± 0.11 | 3.07 ± 0.077 | 3.03 ± 0.088
DIILGQNIKAPSVKRQK [PRP8] | 2.44 ± 0.081 | 2.35 ± 0.078 | 1.53 ± 0.16 | 2.51 ± 0.072
SAAAAGNRNSSSVFLPS [BRR2] | 3.13 ± 0.062 | 3.17 ± 0.063 | 3.13 ± 0.046 | 3.15 ± 0.059
LLKKELLTIEPKLKEAT [SMC2] | 3.22 ± 0.052 | 3.14 ± 0.064 | 3.11 ± 0.046 | 3.21 ± 0.039
EPTVRIQAVFCLTKFQD [YCG1] | 2.27 ± 0.05 | 2.53 ± 0.046 | 2.28 ± 0.063 | 2.78 ± 0.047
